Reference: paper PMC7153820 (Oncoimmunology, 2020)

Experiments:
[1] = molecular target: biotinylated recombinant human TIM-3-Fc chimera (R&D Systems 2365-TM) (human, UniProt Q8TDQ0, biotin (EZ-Link Sulfo-NHS-LC-Biotinylation kit)); assay: ELISA
[2] = molecular target: rhTIM-3-IgG1-Fc (human, UniProt Q8TDQ0); assay: ELISA
[3] = molecular target: rhTIM-3-Fc AF647 (R&D Systems 2365-TM) (Homo sapiens (Human)., UniProt Q8TDQ0, AF647); assay: flow cytometry on cells
[4] = molecular target: human TIM-3 on primary blood cells (Homo sapiens (Human)., UniProt Q8TDQ0); assay: flow cytometry on cells

IC50 [1]: 7.46 ± 0.052 nM
IC50 [2]: 0.353 ± 0.383 nM
IC50 [3]: 4.44 ± 3.12 nM
EC50 [4]: 0.74 ± 0.57 nM
B1: M6903, fully human anti-TIM-3 monoclonal IgG2 antibody (antibody, V domains shown)
VH: not shown
VL: QSALTQPRSVSGSPGQSVTISCTGTSSDVGGYNYVSWYQQHPGKAPKLMIYDVSKRPSGVPDRFSGSKSGNTASLTISGLQAEDEADYYCSSYADSVVFGGGTKVTVL
